# Literature values, collected in paper PMC2775957.
# Legend:
# CMG2 (Homo sapiens) = CMG2 (Homo sapiens) (UniProt P58335)
# TEM8 (Homo sapiens) = TEM8 (Homo sapiens) (UniProt Q9H6X2)
substance,measurement,setting,value
Protective antigen (from UniProt P13423),Kd,CMG2 (Homo sapiens),1 nM
same,Kd,TEM8 (Homo sapiens),10 nM
